16 molecules from article PMC4019986, “Structural and biochemical characterization of the KLHL3–WNK kinase interaction important in blood pressure regulation” (Biochemical Journal, 2014) can be followed below.

Assay [1] has as its target T1, GST–KLHL3^290–587 (Homo sapiens, UniProt Q9UH77).
T1 construct: the isolated C-terminal Kelch domain (residues 290–587); made in house; host or cells: E. coli BL21
T1 sequence (Q9UH77 290-587): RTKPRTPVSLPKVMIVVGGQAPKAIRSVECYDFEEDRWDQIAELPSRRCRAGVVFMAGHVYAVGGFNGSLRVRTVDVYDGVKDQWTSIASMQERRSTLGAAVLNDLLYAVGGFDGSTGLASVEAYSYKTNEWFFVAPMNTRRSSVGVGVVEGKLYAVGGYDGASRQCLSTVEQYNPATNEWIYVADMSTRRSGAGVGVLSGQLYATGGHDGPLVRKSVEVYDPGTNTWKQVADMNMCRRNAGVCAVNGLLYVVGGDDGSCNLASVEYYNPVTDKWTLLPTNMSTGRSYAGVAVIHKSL
As to the kind of experiment: Fluorescence polarization binding of Lumio-Green-labelled degron peptides to the KLHL3 Kelch domain.

Assay [2] addresses core 11-residue WNK4 peptide (WNK4 WT 557–567), Lumio-Green-labelled. As to the kind of experiment: fluorescence polarisation; Kelch protein titrated against 10 nM Lumio-Green-labelled peptide; 25°C; 50 mM Tris/HCl pH 7.5, 150 mM NaCl, 2 mM DTT; one-site specific binding with Hill slope; duplicates, at least 12 points per curve. For orientation: Polarisation of emitted light reports the rotation of a fluorescent probe.

Assay [3] concerns the target T2, GST–KLHL3^290–587 (human, UniProt Q9UH77-1 290-587).
T2 construct: KLHL3, human, NM_017415.2, C-terminal Kelch domain, residues 290-587; pGEX6P-1, PreScission site between GST and KLHL3; eluted with glutathione as the GST fusion; also called isolated KLHL3 Kelch domain; GST-KLHL3 290-587 wild-type; source: E. coli BL21, purified (glutathione–Sepharose); not shown: GST, N-terminal, kept
T2 sequence (looked up): T1 sequence (Q9UH77 290-587)
The assay is described as above. As to conditions: both partners purified.

The target in assay [4] is T3, KEAP1 full-length protein (residues 1–624) (UniProt Q14145 1-624).
T3 construct: KEAP1, NM_203500.1, amplified from EST IMAGE 3163902, residues 1-624; NM_203500.1 is a human transcript as far as I recall; also called Kelch-like enoyl-CoA hydratase-associated protein 1; source: Sf21 cells, purified (ampicillin–Sepharose, TEV protease release, size-exclusion chromatography); not shown: DAC, N-terminal, cleaved
The assay is described as above. The following applies: both partners purified.

The target in assay [5] is T4, human KLHL3 Kelch domain (residues 298–587) (human, UniProt Q9UH77-1 298-587).
T4 construct: KLHL3, human, NM_017415.2, Kelch domain, residues 298-587; Vector pNIC28-Bsa4 (GenBank EF198106); The results speak of unmodelled residues 296–299, which lie partly before the stated limit; also called KLHL3 (crystallization construct); source: E. coli BL21(DE3)-R3-pRARE, purified (Ni-Sepharose, rTEV cleavage, HiTrap Q, Superdex 200); not shown: His6, N-terminal, cleaved
T4 sequence (looked up): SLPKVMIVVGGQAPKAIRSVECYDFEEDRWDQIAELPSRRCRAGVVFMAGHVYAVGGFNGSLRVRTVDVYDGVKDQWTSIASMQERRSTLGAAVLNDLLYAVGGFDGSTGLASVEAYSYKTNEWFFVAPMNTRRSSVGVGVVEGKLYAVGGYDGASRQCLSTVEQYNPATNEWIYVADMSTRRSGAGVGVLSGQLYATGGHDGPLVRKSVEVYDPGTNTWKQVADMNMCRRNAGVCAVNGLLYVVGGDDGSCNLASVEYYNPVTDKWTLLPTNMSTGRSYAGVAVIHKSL
As to the kind of experiment: crystal structure; KLHL3 Kelch domain (9 mg/ml) with 2 mM WNK4 11-mer peptide; sitting drop, 0.1 M acetate pH 4.3, 0.2 M ammonium sulfate, 25–35% PEG 4000. The following applies: both partners purified.

For assay [6], the target named is T5, human KLHL2 Kelch domain (residues 294–593) (human, UniProt O95198 294-593).
T5 construct: KLHL2, human, IMAGE clone 4791972, Kelch domain, residues 294-593; Vector pNIC28-Bsa4 (GenBank EF198106); The results speak of unmodelled residues 292–305, which lie partly before the stated limit; also called KLHL2 (crystallization construct); Mayven; source: E. coli BL21(DE3)-R3-pRARE, purified (Ni-Sepharose, rTEV cleavage, HiTrap SP, Superdex 200); not shown: His6, N-terminal, cleaved
T5 sequence (looked up): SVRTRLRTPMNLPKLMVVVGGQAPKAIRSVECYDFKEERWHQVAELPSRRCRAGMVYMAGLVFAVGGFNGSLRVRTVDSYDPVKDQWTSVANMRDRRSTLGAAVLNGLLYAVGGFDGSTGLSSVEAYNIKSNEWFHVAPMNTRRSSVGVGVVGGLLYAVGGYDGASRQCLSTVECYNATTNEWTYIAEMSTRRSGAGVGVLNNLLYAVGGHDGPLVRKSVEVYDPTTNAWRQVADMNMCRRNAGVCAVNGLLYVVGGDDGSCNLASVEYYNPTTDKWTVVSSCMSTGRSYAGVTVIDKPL
As to the kind of experiment: crystal structure; KLHL2 Kelch domain (9 mg/ml) with 2 mM WNK4 11-mer peptide; sitting drop, 20°C, 0.1 M Hepes pH 7.2, 2.5 M ammonium sulfate, 2% PEG 400. The following applies: both partners purified.

[7] abbreviates: disease-causing mutation within the WNK4 degron peptide, Figure 1C.

Values joined by “and” are separate entries in the source; they are usually repeats but may differ in a detail not shown here. Identical values can stand only once. Like-named read-outs stand apart in the source and are kept apart here. Ends that are not written are not given here. Peptide text beside a SMILES is read from it. * marks the point of attachment. X1 = N[C@H]1CS[As]2SC[C@H](NC1=O)C(=O)N1CCC[C@H]1C(=O)NCC(=O)N[C@H]1CS[As](SC[C@@H](C(=O)*)NC1=O)c1c(O)ccc3c1Oc1c(ccc(O)c12)C31OC(=O)c2ccccc21

T3 sequence (Q14145 whole entry, the tested form may be a part): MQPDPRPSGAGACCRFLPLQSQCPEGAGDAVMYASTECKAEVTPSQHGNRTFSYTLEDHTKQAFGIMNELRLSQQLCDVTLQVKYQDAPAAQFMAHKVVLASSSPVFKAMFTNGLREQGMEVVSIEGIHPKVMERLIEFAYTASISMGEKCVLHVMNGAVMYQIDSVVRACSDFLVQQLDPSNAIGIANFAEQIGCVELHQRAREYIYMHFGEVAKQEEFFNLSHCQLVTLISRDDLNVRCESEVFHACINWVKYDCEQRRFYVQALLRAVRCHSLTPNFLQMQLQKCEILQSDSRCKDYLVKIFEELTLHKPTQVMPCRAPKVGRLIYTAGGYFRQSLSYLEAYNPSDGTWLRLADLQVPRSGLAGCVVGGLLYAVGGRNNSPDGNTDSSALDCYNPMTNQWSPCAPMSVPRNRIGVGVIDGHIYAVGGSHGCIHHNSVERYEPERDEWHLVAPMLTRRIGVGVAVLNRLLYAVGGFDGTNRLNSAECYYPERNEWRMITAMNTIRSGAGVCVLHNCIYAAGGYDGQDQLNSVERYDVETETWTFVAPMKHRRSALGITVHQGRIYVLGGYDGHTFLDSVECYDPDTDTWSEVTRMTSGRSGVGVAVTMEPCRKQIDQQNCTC

For “WNK4 E562K 549–567: 19-residue WNK4 degron peptide with Gordon's syndrome mutation E562K, Lumio Green labelled (GPPSVFPPEPEEPKADQHQ; not fully specified (N-terminus); also: Lumio Green fluorophore on N-terminal linker CCPGCCGGGG)”, in the assay with GST–KLHL3^290–587 [1] (setting [7]), the “binding to KLHL3 in words” value is reported as “virtually abolished binding”.

`CC(C)[C@H](NC(=O)[C@H](CO)NC(=O)[C@@H]1CCCN1C(=O)[C@@H]1CCCN1C(=O)CNC(=O)CNC(=O)CNC(=O)CNC(=O)CNC(=O)[C@@H]1CS[As]2SC[C@H](NC(=O)CNC(=O)[C@@H]3CCCN3C(=O)[C@@H]3CS[As](SC[C@H](N)C(=O)N3)c3c(O)ccc4c3Oc3c(ccc(O)c32)C42OC(=O)c3ccccc32)C(=O)N1)C(=O)N[C@@H](Cc1ccccc1)C(=O)N1CCC[C@H]1C(=O)N1CCC[C@H]1C(=O)N[C@@H](CCC(=O)O)C(=O)N1CCC[C@H]1C(=O)N[C@@H](CCC(=O)O)C(=O)N[C@@H](CCC(=O)O)C(=O)N1CCC[C@H]1C(=O)N[C@@H](CCC(=O)O)C(=O)N[C@@H](C)C(=O)N[C@@H](CC(=O)O)C(=O)N[C@@H](CCC(=O)O)C(=O)N[C@@H](Cc1cnc[nH]1)C(=O)N[C@@H](CCC(N)=O)C(=O)O` (stereo partly shown) [WNK4 Q565E 549–567] (X1-GGGGGPPSVFPPEPEEPEADEHQ-OH; N-terminus and C-terminus assumed): at GST–KLHL3^290–587 [1], the “reduction in binding relative to wild-type WNK4 degron peptide” value was 10 fold.

In the case of “WNK4 D564A 549–567: 19-residue WNK4 degron peptide with Gordon's syndrome mutation D564A, Lumio Green labelled (GPPSVFPPEPEEPEAAQHQ; not fully specified (N-terminus); also: Lumio Green fluorophore on N-terminal linker CCPGCCGGGG)”, the “reduction in binding relative to wild-type WNK4 degron peptide” value with GST–KLHL3^290–587 [1] (setting [7]) is 10 fold.

Take “GST–KLHL2^298–593 (from UniProt O95198 298-593) (domain or fragment)”: the Kd (commonly the equilibrium constant for the complex coming apart) in assay [2] is 260 nM.

B1: NRF2 degron peptide (NRF2 WT 74–84) (peptide)
peptide: CCPGCCGGGGLQLDEETGEFL
modifications: cysteine pairing not given here; also: Lumio Green fluorophore on N-terminal linker CCPGCCGGGG
notes: nuclear factor-erythroid 2-related factor 2 (NRF2), degron motif, residues 74-84; also called NRF2 degron motif; source: synthetic peptide (GL Biochem)
B1 gave a dissociation constant (Kd) with GST–KLHL3^290–587 [3] above 50000 nM.

B2: WNK4 E562K 549–567 peptide (peptide)
peptide: GPPSVFPPEPEEPKADQHQ
modifications: not fully specified (N-terminus); also: Lumio Green fluorophore on N-terminal linker CCPGCCGGGG
notes: source: synthetic peptide (GL Biochem)
Take B2: the dissociation constant Kd with GST–KLHL3^290–587 [3] is above 50000 nM.

B3: WNK4 D564A 549–567 peptide (peptide)
peptide: GPPSVFPPEPEEPEAAQHQ
modifications: not fully specified (N-terminus); also: Lumio Green fluorophore on N-terminal linker CCPGCCGGGG
notes: as for B2
In the case of B3, the dissociation constant Kd with GST–KLHL3^290–587 [3] is above 50000 nM.

B4: WNK4 WT 555–567 peptide (peptide)
peptide: PPEPEEPEADQHQ
modifications: not fully specified (N-terminus); also: Lumio Green fluorophore on N-terminal linker CCPGCCGGGG
notes: WNK4 acidic degron, residues 555-567; source: synthetic peptide (GL Biochem)
B4 registered a Kd with GST–KLHL3^290–587 [3] of 910 nM.

B5: core 11-residue WNK4 peptide (WNK4 WT 557–567), Lumio-Green-labelled (peptide)
peptide: EPEEPEADQHQ
modifications: not fully specified (N-terminus); also: Lumio Green fluorophore on N-terminal linker CCPGCCGGGG
notes: WNK4 acidic degron, residues 557-567; also called WNK1/4 degron; 11-residue WNK4 (557–567) degron peptide; source: synthetic peptide (GL Biochem)
B5: the dissociation constant Kd in the assay with GST–KLHL3^290–587 [3] is 690 nM and 350 nM and 510 nM; in assay [4], above 50000 nM.

B6: WNK4 WT 556–567 peptide (peptide)
peptide: PEPEEPEADQHQ
modifications: not fully specified (N-terminus); also: Lumio Green fluorophore on N-terminal linker CCPGCCGGGG
notes: WNK4 acidic degron, residues 556-567; source: synthetic peptide (GL Biochem)
In the assay with GST–KLHL3^290–587 [3], B6 registered a dissociation constant Kd of 290 nM.

B7: WNK3 degron peptide (WNK3 WT 537–547) (peptide)
peptide: ECEETEVDQHV
modifications: not fully specified (N-terminus); also: Lumio Green fluorophore on N-terminal linker CCPGCCGGGG
notes: also called WNK3 motif; source: synthetic peptide (GL Biochem)
For B7, the Kd was 840 nM with GST–KLHL3^290–587 [3] and above 50000 nM in assay [4].

B8: WNK4 WT 554–564 peptide (peptide)
peptide: FPPEPEEPEAD
modifications: not fully specified (N-terminus); also: Lumio Green fluorophore on N-terminal linker CCPGCCGGGG
notes: WNK4 acidic degron, residues 554-564; source: synthetic peptide (GL Biochem)
For the molecule B8, the dissociation constant Kd in the assay with GST–KLHL3^290–587 [3] is above 50000 nM.

B9: WNK4 Q565E 549–567 peptide (peptide)
peptide: GPPSVFPPEPEEPEADEHQ
modifications: not fully specified (N-terminus); also: Lumio Green fluorophore on N-terminal linker CCPGCCGGGG
notes: as for B2
As for B9, the Kd with GST–KLHL3^290–587 [3] was 6210 nM.

B10: WNK4 WT 554–566 peptide (peptide)
peptide: FPPEPEEPEADQH
modifications: not fully specified (N-terminus); also: Lumio Green fluorophore on N-terminal linker CCPGCCGGGG
notes: WNK4 acidic degron, residues 554-566; source: synthetic peptide (GL Biochem)
For B10, the Kd with GST–KLHL3^290–587 [3] came out at 7810 nM.

B11: WNK4 WT 554–567 peptide (peptide)
peptide: FPPEPEEPEADQHQ
modifications: not fully specified (N-terminus); also: Lumio Green fluorophore on N-terminal linker CCPGCCGGGG
notes: WNK4 acidic degron, residues 554-567; source: synthetic peptide (GL Biochem)
Consider B11, for which binding in the assay with GST–KLHL3^290–587 [3] was characterised by a dissociation constant (Kd) of 710 nM.

B12: 11-residue WNK4 peptide (EPEEPEADQHQ) used for crystallization (peptide)
peptide: EPEEPEADQHQ
notes: WNK4 acidic degron, residues 557-567; the sentence 'All peptides contained an N-terminal linker' stands in the fluorescence polarization methods; also called WNK4 11-mer peptide; 11-residue WNK4 degron motif; source: synthetic peptide (GL Biochem)
On to B12, for which the binding result in assay [5] and in assay [6] was “binds” in each case.
